Results taken from IntAct's records for PubMed 18560563.

B1: Bifunctional UDP-N-acetylglucosamine 2-epimerase/N-acetylmannosamine kinase (Homo sapiens), Q9Y223 (parent)
chain: MEKNGNNRKLRVCVATCNRADYSKLAPIMFGIKTEPEFFELDVVVLGSHLIDDYGNTYRMIEQDDFDINTRLHTIVRGEDEAAMVESVGLALVKLPDVLNRLKPDIMIVHGDRFDALALATSAALMNIRILHIEGGEVSGTIDDSIRHAITKLAHYHVCCTRSAEQHLISMCEDHDRILLAGCPSYDKLLSAKNKDYMSIIRMWLGDDVKSKDYIVALQHPVTTDIKHSIKMFELTLDALISFNKRTLVLFPNIDAGSKEMVRVMRKKGIEHHPNFRAVKHVPFDQFIQLVAHAGCMIGNSSCGVREVGAFGTPVINLGTRQIGRETGENVLHVRDADTQDKILQALHLQFGKQYPCSKIYGDGNAVPRILKFLKSIDLQEPLQKKFCFPPVKENISQDIDHILETLSALAVDLGGTNLRVAIVSMKGEIVKKYTQFNPKTYEERINLILQMCVEAAAEAVKLNCRILGVGISTGGRVNPREGIVLHSTKLIQEWNSVDLRTPLSDTLHLPVWVDNDGNCAALAERKFGQGKGLENFVTLITGTGIGGGIIHQHELIHGSSFCAAELGHLVVSLDGPDCSCGSHGCIEAYASGMALQREAKKLHDEDLLLVEGMSVPKDEAVGALHLIQAAKLGNAKAQSILRTAGTALGLGVVNILHTMNPSLVILSGVLASHYIHIVKDVIRQQALSSVQDVDVVVSDLVDPALLGAASMVLDYTTRRIY

Variants of: B1
Details: with actn1_human ACTN1, P12814
Sequence of actn1_human ACTN1, P12814 (P12814 whole entry): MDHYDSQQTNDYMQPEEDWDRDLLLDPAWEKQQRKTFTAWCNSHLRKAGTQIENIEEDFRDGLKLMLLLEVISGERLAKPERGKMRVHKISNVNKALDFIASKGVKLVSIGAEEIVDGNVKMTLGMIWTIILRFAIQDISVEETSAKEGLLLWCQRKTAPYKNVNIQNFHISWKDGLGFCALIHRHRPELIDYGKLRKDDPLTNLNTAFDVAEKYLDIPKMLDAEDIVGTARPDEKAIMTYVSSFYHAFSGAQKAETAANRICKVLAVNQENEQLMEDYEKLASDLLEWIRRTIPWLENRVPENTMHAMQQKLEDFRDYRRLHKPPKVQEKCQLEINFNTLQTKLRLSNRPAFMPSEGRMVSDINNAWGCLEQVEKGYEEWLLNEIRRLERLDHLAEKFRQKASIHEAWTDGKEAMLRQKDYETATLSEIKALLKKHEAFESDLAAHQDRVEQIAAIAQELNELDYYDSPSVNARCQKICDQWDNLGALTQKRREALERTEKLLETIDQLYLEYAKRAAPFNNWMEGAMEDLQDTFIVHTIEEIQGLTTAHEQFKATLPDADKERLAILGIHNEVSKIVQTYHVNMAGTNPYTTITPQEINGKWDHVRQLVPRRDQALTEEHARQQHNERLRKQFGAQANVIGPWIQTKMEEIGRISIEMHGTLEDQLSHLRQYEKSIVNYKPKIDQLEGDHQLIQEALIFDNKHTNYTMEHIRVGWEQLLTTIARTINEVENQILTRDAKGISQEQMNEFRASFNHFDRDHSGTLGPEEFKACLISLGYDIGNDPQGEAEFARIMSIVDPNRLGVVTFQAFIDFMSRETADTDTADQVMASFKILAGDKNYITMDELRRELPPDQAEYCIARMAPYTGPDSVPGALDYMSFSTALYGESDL

Row | effect of a mutation on the interaction | Variant
1 | with no effect | M712T
